Assay results: patent US20180022805A1

Target: pre-B cell receptor (pre-BCR) on the surface of live BCP-ALL cells (human) (UniProt P15814)
Test: single particle tracking with hidden Markov model (Viterbi plot), one receptor pair on 697 cells

Sequence of pre-B cell receptor (pre-BCR) on the surface of live BCP-ALL cells (chain): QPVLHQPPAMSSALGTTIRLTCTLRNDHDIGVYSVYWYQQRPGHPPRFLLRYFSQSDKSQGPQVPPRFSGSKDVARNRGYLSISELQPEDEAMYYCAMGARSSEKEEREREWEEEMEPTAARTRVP
Sequence of pre-B cell receptor (pre-BCR) on the surface of live BCP-ALL cells (P15814 38-213): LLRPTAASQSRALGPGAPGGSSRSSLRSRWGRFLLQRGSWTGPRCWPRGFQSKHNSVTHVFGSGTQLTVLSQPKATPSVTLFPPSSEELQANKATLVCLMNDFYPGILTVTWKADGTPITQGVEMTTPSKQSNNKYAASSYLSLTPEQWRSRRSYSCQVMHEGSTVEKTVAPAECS
Sequence of pre-B cell receptor (pre-BCR) on the surface of live BCP-ALL cells (P11912 33-226): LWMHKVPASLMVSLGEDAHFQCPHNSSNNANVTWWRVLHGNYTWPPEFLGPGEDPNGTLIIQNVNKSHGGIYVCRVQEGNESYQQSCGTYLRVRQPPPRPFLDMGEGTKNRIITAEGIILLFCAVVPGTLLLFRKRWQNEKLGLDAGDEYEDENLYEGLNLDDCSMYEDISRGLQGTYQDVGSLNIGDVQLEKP
Sequence of pre-B cell receptor (pre-BCR) on the surface of live BCP-ALL cells (P40259 29-229): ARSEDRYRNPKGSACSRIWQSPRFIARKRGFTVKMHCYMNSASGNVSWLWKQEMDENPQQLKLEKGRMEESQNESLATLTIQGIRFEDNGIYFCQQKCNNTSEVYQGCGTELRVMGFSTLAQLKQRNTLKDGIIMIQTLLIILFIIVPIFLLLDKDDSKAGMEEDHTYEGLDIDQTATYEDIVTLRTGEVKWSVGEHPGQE

- homo-interaction lifetime: < 3 s
Substance: pre-B cell receptor (pre-BCR) on the surface of live BCP-ALL cells (from UniProt P15814 38-213; P11912 33-226; P40259 29-229)
